From patent US20160326240A1 come the findings set out here.

Changes are numbered by the printed parent chain.

Sequences and labels used below:
B1: AE12-1 (antibody, V domains shown)
VH: EVQLVQSGAEVKKPGASVKVSCKASGYTFTSHGISWVRQAPGQGLDWMGWISPYSGNTNYAQKLQGRVTMTTDTSTSTAYMELSSLRSEDTAVYYCARVGSGPYYYMDVWGQGTLVTVSS
VL: QSALTQPRSVSGSPGQSVTISCTGTSSSVGDSIYVSWYQQHPGKAPKLMLYDVTKRPSGVPDRFSGSKSGNTASLTISGLQAEDEADYYCCSYAGTDTLFGGGTKVTVL
B2: AE12-1-I (antibody, V domains shown)
VH: B1 VH
VL: B1 VL with C91I
B3: AE12-1-H (antibody, V domains shown)
VH: B1 VH
VL: B1 VL with C91H
B4: AE12-1-Y (antibody, V domains shown)
VH: B1 VH
VL: B1 VL with C91Y
B5: AE12-1-F (antibody, V domains shown)
VH: B1 VH
VL: B1 VL with C91F
B6: AE12-1-V (antibody, V domains shown)
VH: B1 VH
VL: B1 VL with C91V
B7: AE12-1-K (antibody, V domains shown)
VH: B1 VH
VL: B1 VL with C91K
B8: AE12-1-L (antibody, V domains shown)
VH: B1 VH
VL: B1 VL with C91L

The target in this experiment is T1, Rat RGMa-His (rat) (UniProt D4A188).
T1 sequence: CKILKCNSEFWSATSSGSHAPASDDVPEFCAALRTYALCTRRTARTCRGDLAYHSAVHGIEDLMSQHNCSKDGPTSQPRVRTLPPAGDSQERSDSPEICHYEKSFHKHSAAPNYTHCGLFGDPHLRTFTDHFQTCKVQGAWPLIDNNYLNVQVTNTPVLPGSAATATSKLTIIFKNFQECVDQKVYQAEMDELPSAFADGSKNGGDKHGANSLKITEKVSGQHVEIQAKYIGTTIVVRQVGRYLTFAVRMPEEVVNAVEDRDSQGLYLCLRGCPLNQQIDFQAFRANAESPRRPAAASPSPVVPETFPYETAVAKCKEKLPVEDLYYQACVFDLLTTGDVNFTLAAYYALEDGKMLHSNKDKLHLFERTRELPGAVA
Kind of experiment: BIAcore.
For orientation: Kd means the free concentration of one partner at which half of the binding sites on the other are occupied at equilibrium, for simple one-to-one binding. Lower therefore signals a tighter complex. By koff is commonly meant the first-order rate constant of dissociation. A low value points to slow dissociation. What is called kon is the rate constant with which the complex forms. Consider B1, for which the Kd came to 19 nM, the koff is 0.00048 s⁻¹ and the kon came to 26000 M⁻¹ s⁻¹.

In turn, B2 gave a Kd of 12 nM, a koff of 0.00032 s⁻¹ and a kon of 28000 M⁻¹ s⁻¹.

With B3, the dissociation constant (Kd) is 8.6 nM, the koff worked out at 0.00025 s⁻¹ and the kon was determined as 29000 M⁻¹ s⁻¹.

In the case of B4, the Kd is 5 nM, the koff came out at 6.9e-05 s⁻¹ and the kon was 14000 M⁻¹ s⁻¹.

Take B5: the Kd was found to be 5.2 nM, the koff stood at 0.00014 s⁻¹ and the kon was determined as 26000 M⁻¹ s⁻¹.

Molecule B6 displayed an equilibrium dissociation constant (Kd) of 15 nM, a koff of 0.00032 s⁻¹ and a kon of 220000 M⁻¹ s⁻¹.

Regarding B7, the Kd came out at 17 nM, the koff worked out at 0.00028 s⁻¹ and the kon turned out to be 16000 M⁻¹ s⁻¹.

As for B8, the Kd was found to be 12 nM, the koff amounted to 0.00039 s⁻¹ and the kon came to 32000 M⁻¹ s⁻¹.
